Legend:
Assay in all cases: pulldown
HNRNPR (Gallus gallus) = biological target: T1, HNRNPR (Gallus gallus) (UniProt A0A8V0YGA1); details: 20 nM protein, 1.5 uM RNA pool; 20 mM HEPES pH 7.8, 70 mM KCl, 10 mM NaCl, 10% glycerol, 2 mM DTT, 0.1 ug/uL BSA; 30 min, 4 C (protocol of this paper; not …); cited from earlier work
T1 sequence: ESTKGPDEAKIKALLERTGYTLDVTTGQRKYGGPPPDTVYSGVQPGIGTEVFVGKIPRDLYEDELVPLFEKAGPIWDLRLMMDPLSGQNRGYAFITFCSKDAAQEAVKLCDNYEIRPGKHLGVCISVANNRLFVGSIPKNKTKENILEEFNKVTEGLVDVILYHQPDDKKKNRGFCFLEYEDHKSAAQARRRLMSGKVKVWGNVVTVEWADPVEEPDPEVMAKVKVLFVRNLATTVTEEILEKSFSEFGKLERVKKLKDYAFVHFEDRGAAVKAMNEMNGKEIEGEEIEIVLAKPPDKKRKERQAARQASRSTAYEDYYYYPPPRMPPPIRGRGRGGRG

[1] = biological target: T2, hnrnpr (Xenopus tropicalis) (UniProt A0A8J0QQ94); details: 20 nM protein, 1.5 uM RNA pool; 20 mM HEPES pH 7.8, 70 mM KCl, 10 mM NaCl, 10% glycerol, 2 mM DTT, 0.1 ug/uL BSA; 30 min, 4 C (protocol of this paper; not …); cited from earlier work
T2 sequence: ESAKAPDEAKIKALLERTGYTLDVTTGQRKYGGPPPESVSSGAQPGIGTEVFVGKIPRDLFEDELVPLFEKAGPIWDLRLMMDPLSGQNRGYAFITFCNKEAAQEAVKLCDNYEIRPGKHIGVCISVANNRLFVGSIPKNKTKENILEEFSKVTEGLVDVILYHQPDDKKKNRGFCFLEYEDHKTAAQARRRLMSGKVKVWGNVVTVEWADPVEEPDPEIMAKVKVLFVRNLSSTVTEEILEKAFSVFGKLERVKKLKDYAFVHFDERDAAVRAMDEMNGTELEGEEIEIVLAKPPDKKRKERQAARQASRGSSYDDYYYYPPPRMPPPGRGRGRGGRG

G3BP2 (Homo sapiens) = biological target: T3, G3BP2 (Homo sapiens) (UniProt Q9UN86); details: 20 nM protein, 1.5 uM RNA pool; 20 mM HEPES pH 7.8, 70 mM KCl, 10 mM NaCl, 10% glycerol, 2 mM DTT, 0.1 ug/uL BSA; 30 min, 4 C (protocol of this paper; not …); cited from earlier work
T3 sequence: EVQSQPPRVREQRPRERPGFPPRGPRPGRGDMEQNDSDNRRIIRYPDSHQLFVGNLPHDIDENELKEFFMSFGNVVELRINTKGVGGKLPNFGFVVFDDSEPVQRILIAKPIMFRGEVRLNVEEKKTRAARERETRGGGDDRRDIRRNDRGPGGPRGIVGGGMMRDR

[2] = biological target: T4, PK27672.1 (Cannabis sativa) (UniProt A0A7J6HI09); details: 20 nM protein, 1.5 uM RNA pool; 20 mM HEPES pH 7.8, 70 mM KCl, 10 mM NaCl, 10% glycerol, 2 mM DTT, 0.1 ug/uL BSA; 30 min, 4 C
T4 sequence: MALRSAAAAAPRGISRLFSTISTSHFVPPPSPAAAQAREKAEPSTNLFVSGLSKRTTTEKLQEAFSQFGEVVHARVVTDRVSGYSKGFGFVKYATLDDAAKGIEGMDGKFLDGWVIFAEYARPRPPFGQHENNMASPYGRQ

[3] = biological target: T5, AT1G76460 (Arabidopsis thaliana) (UniProt F4I2E4); details: 20 nM protein, 1.5 uM RNA pool; 20 mM HEPES pH 7.8, 70 mM KCl, 10 mM NaCl, 10% glycerol, 2 mM DTT, 0.1 ug/uL BSA; 30 min, 4 C (protocol of this paper; not …); cited from earlier work
T5 sequence: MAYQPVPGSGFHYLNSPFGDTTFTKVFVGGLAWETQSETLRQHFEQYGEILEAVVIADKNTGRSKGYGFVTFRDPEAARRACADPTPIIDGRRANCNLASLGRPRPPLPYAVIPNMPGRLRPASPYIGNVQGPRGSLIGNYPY

hnrnpa0l (Danio rerio) = hnrnpa0l (Danio rerio) (UniProt A0ACM8Q088); details: 20 nM protein, 1.5 uM RNA pool; 20 mM HEPES pH 7.8, 70 mM KCl, 10 mM NaCl, 10% glycerol, 2 mM DTT, 0.1 ug/uL BSA; 30 min, 4 C
[4] = biological target: T6, spo5 (Schizosaccharomyces pombe) (UniProt Q2L4W6); details: 20 nM protein, 1.5 uM RNA pool; 20 mM HEPES pH 7.8, 70 mM KCl, 10 mM NaCl, 10% glycerol, 2 mM DTT, 0.1 ug/uL BSA; 30 min, 4 C
T6 sequence: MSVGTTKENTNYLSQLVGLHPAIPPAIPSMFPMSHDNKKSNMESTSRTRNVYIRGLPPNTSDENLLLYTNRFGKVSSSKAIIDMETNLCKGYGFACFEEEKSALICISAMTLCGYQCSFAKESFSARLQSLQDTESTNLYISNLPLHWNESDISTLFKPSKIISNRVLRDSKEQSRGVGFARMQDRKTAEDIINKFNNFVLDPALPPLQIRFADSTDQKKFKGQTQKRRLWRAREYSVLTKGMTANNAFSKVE

[5] = biological target: T7, CBG14639 (Caenorhabditis briggsae) (UniProt A8XKC4); details: 20 nM protein, 1.5 uM RNA pool; 20 mM HEPES pH 7.8, 70 mM KCl, 10 mM NaCl, 10% glycerol, 2 mM DTT, 0.1 ug/uL BSA; 30 min, 4 C
T7 sequence: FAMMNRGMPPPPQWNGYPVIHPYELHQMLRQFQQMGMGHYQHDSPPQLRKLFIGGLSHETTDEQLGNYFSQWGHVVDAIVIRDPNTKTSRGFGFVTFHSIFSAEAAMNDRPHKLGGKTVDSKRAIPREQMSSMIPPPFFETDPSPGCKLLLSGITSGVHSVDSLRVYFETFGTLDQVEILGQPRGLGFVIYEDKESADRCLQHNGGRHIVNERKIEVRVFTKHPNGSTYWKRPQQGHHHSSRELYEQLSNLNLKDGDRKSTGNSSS

[6] = biological target: T8, rnp-2 (Caenorhabditis elegans) (UniProt Q21322); details: 20 nM protein, 1.5 uM RNA pool; 20 mM HEPES pH 7.8, 70 mM KCl, 10 mM NaCl, 10% glycerol, 2 mM DTT, 0.1 ug/uL BSA; 30 min, 4 C
T8 sequence: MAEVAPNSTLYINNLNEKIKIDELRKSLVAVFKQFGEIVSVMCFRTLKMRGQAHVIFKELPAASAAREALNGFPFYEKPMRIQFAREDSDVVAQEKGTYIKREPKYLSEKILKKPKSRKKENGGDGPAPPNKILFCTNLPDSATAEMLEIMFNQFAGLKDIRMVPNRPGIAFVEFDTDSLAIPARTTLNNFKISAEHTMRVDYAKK

Chain of hnrnpa0l (Danio rerio) (A0ACM8Q088 entry or part of it): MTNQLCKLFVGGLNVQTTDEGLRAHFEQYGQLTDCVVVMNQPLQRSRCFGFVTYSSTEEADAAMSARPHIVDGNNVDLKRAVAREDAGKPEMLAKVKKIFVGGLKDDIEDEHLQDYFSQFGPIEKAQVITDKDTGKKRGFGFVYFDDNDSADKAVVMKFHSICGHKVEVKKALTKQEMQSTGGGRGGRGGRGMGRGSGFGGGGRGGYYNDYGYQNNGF

Substance: AAAUU [RNAcompete motif RNCMPT00288]
- binding signal (z-score (mean of top ten 7-mers)) (HNRNPR (Gallus gallus)): 6.51

Substance: AAAUU [RNAcompete motif RNCMPT00289]
- binding signal (z-score (mean of top ten 7-mers)) [1]: 8.84

Substance: AGGAUNA [RNAcompete motif RNCMPT00021]
- binding signal (z-score (mean of top ten 7-mers)) (G3BP2 (Homo sapiens)): 8.75

Substance: AGUACA [RNAcompete motif RNCMPT00342]
- binding signal (z-score (mean of top ten 7-mers)) [2]: 9.79

Substance: AGUGUGA [RNAcompete motif RNCMPT00284]
- binding signal (z-score (mean of top ten 7-mers)) [3]: 8.11

Substance: AUAGGA [RNAcompete motif RNCMPT00340]
- binding signal (z-score (mean of top ten 7-mers)) (hnrnpa0l (Danio rerio)): 10.9

Substance: AUAUUA [RNAcompete motif RNCMPT00311]
- binding signal (z-score (mean of top ten 7-mers)) [4]: 7.81

Substance: AUUAGG [RNAcompete motif RNCMPT00331]
- binding signal (z-score (mean of top ten 7-mers)) [5]: 8.86

Substance: GCACUU [RNAcompete motif RNCMPT00301]
- binding signal (z-score (mean of top ten 7-mers)) [6]: 27

Source: PMC12990809
